IntAct's records for PubMed 22939626

Target: vira_shifl virA (UniProt Q7BU69)
Sequence (Q7BU69 whole entry): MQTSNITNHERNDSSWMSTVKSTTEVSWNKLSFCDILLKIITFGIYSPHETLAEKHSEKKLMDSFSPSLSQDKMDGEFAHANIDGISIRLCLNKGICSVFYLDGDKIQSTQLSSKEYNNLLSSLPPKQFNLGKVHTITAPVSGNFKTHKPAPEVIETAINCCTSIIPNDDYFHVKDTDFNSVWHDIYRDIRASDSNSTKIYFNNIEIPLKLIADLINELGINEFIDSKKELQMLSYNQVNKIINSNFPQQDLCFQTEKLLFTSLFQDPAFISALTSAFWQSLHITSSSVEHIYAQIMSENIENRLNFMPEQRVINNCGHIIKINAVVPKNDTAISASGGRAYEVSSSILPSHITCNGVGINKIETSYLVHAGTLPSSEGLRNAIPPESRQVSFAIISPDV

Sequence of Ras-related protein Rab-1A (Homo sapiens), P62820 S25N (P62820 whole entry S25N): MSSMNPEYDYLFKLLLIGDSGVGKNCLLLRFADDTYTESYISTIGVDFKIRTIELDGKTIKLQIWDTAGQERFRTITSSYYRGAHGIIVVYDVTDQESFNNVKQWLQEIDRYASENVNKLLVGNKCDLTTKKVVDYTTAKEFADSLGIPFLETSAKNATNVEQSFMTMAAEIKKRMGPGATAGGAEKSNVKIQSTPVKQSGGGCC
Sequence of Ras-related protein Rab-1A (Homo sapiens), P62820 Q70L (P62820 whole entry Q70L): as the sequence (P62820 whole entry S25N) above, with N25S, Q70L counted along it

| Substance | effect of a mutation on the interaction |
| --- | --- |
| Ras-related protein Rab-1A (Homo sapiens), P62820 S25N | decreasing interaction strength |
| Ras-related protein Rab-1A (Homo sapiens), P62820 Q70L | increasing interaction strength |
